Patent publication US20180095066A1 (OXFORD NANOPORE TECHNOLOGIES, published 2018)

B2: MspA-(G75S/G77S/L88N/D90N/D91N/D93N/D118R/Q126R/D134R/E139K) monomer (other)
chain: GLDNELSLVDGQDRTLTVQQWDTFLNGVFPLDRNRLTREWFHSGRAKYIVAGPGADEFEGTLELGYQIGFPWSLSVSINFSYTTPNININNGNITAPPFGLNSVITPNLFPGVSISARLGNGPGIREVATFSVRVSGAKGGVAVSNAHGTVTGAAGGVLLRPFARLIASTGDSVTTYGEPWNMN
notes: Made by coupled in vitro transcription and translation (35S-methionine) with rabbit red blood cell membranes; eight copies in the homo-oligomer; also called untagged monomer; untagged version
B4: MspA-((Del-L74/G75/D118/L119)D56N/E59R/L88N/D90N/D91N/Q126R/D134R/E139K) monomer (other)
chain: GLDNELSLVDGQDRTLTVQQWDTFLNGVFPLDRNRLTREWFHSGRAKYIVAGPGANEFRGTLELGYQIGFPWSVGINFSYTTPNININNGDITAPPFGLNSVITPNLFPGVSISAGNGPGIREVATFSVRVSGAKGGVAVSNAHGTVTGAAGGVLLRPFARLIASTGDSVTTYGEPWNMN
notes: Pore-forming monomer; Seven copies in MspA 1 (7:1), eight in the homo-oligomer MspA 6; also called untagged monomer of MspA 1; monomer of MspA 6

Tests used:
[1] = biological target: B2; test: IVTT of mixed DNA (2:1 untagged:tagged) with rRBCM, 7.5% Tris HCl gel, autoradiography
[2] = biological target: the molecule itself; test: IVTT with rRBCM, 7.5% Tris HCl gel, autoradiography
[3] = biological target: the molecule itself; test: IVTT with rRBCM, 5% Tris HCl gel, autoradiography; homo-oligomerisation
[4] = biological target: the molecule itself; test: 10% TGX gel, coomassie; homo-octamer, broken into monomers at 100 C in 50% DMSO
[5] = biological target: B4; test: co-expression in E. coli, His column, gel filtration, gel; 7:1 hetero-oligomer
[6] = biological target: T1, MspA-((Del-L74/G75/D118/L119)D56N/E59R/L88N/D90N/D91N/N108P/Q126R/D134R/E139K) monomer (Mycobacterium smegmatis, UniProt A0QR29 28-211); test: co-expression under 14 induction conditions, NiNTA batch purification, 10% TGX gel
T1 construct: Seven copies in each of the 7:1 pores MspA 2, MspA 3 and MspA 7; also called untagged monomer of MspA 2, MspA 3 and MspA 7
T1 chain: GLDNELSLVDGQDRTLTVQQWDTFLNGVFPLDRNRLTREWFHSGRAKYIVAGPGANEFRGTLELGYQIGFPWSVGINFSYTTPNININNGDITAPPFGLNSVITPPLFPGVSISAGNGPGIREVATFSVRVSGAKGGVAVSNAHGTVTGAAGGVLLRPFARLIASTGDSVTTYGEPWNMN

B1: MspA-(G75S/G77S/L88N/D90N/D91N/D93N/D118R/Q126R/D134R/E139K/BasTL) monomer (other)
chain: GLDNELSLVDGQDRTLTVQQWDTFLNGVFPLDRNRLTREWFHSGRAKYIVAGPGADEFEGTLELGYQIGFPWSLSVSINFSYTTPNININNGNITAPPFGLNSVITPNLFPGVSISARLGNGPGIREVATFSVRVSGAKGGVAVSNAHGTVTGAAGGVLLRPFARLIASTGDSVTTYGEPWNMNDNQKALEEQMNSINSVNDKLNKGKGKLSLSMNGNQLKATSSNAGYGISYEDKNWGIFVNGEKVYTFNEKSTVGNISNDINKLNIKGPYIEIKKI
notes: also called monomer tagged with full length BasTL
binding result [1]: binds

B2
binding result [2]: binds

B3: MspA-(G75S/G77S/L88N/D90N/D91N/D93N/D118R/Q126R/D134R/E139K/D10H6) monomer (other)
chain: GLDNELSLVDGQDRTLTVQQWDTFLNGVFPLDRNRLTREWFHSGRAKYIVAGPGADEFEGTLELGYQIGFPWSLSVSINFSYTTPNININNGNITAPPFGLNSVITPNLFPGVSISARLGNGPGIREVATFSVRVSGAKGGVAVSNAHGTVTGAAGGVLLRPFARLIASTGDSVTTYGEPWNMNDDDDDDDDDDHHHHHH
notes: also called D10H6 tagged monomer
binding result [3]: no binding

B4
binding result [4]: binds

B5: MspA-((Del-L74/G75/D118/L119)D56N/E59R/L88N/D91N/Q126R/D134R/E139K/BasTL/H6) monomer (other)
chain: GLDNELSLVDGQDRTLTVQQWDTFLNGVFPLDRNRLTREWFHSGRAKYIVAGPGANEFRGTLELGYQIGFPWSVGINFSYTTPNINIDNGDITAPPFGLNSVITPNLFPGVSISAGNGPGIREVATFSVRVSGAKGGVAVSNAHGTVTGAAGGVLLRPFARLIASTGDSVTTYGEPWNMNDNQKALEEQMNSINSVNDKLNKGKGKLSLSMNGNQLKATSSNAGYGISYEDKNWGIFVNGEKVYTFNEKSTVGNISNDINKLNIKGPYIEIKKIHHHHHH
notes: also called tagged monomer of MspA 1
binding result [5]: binds

B6: MspA-((Del-L74/G75/D118/L119)D56N/E59R/L88N/D91N/N108P/Q126R/D134R/E139K/BasTL/H6) monomer (other)
chain: GLDNELSLVDGQDRTLTVQQWDTFLNGVFPLDRNRLTREWFHSGRAKYIVAGPGANEFRGTLELGYQIGFPWSVGINFSYTTPNINIDNGDITAPPFGLNSVITPPLFPGVSISAGNGPGIREVATFSVRVSGAKGGVAVSNAHGTVTGAAGGVLLRPFARLIASTGDSVTTYGEPWNMNDNQKALEEQMNSINSVNDKLNKGKGKLSLSMNGNQLKATSSNAGYGISYEDKNWGIFVNGEKVYTFNEKSTVGNISNDINKLNIKGPYIEIKKIHHHHHH
notes: One copy in MspA 2 (7:1); also called tagged monomer of MspA 2; monomer unit with the BasTL-H6 attached
binding result [6]: binds
